Test results as given in patent US20210252159A1, “CONJUGATES OF CARTILAGE-HOMING PEPTIDES” (priority 2018, published 2021).
Positions of bridges follow the written chain, without caps; N, C: chain ends. Residues, ends and D or L forms follow the SMILES beside them. *: point of attachment. X1 = CC(CCC(C)C(=O)*)C(=O)OCC(=O)[C@@]1(O)[C@H](C)C[C@H]2[C@@H]3CCC4=CC(=O)C=C[C@]4(C)[C@@]3(F)[C@@H](O)C[C@@]21C

How the values were obtained:
[1] = Hydrolysis assay of peptide-drug conjugates in PBS (free Dex by LC/MS); assay type: physicochemical; conditions: 37° C.
Method: In order to determine hydrolysis rates, conjugates can be diluted in PBS, rat plasma, or human plasma and incubated at 37 degrees. Samples can be taken at designated time-points (e.g., 1, 2, 3, 5, 10, 15, 20, 25, 30, 45, 60, or 90 minutes and/or hours after administration). Internal standards such as triamcinolone acetonide (TAA) can be added as an internal standard, and then active agent/TAA can be extracted using acetonitrile, for example. The samples can be dried down, reconstituted, and analyzed by LC/MS. Data can be normalized using Dex AUC/TAA AUC. Percent hydrolysis can be calculated using the average ratio for active agent AUC/TAA AUC at a time point of maximal drug release. A general method can include using a lyophilized, purified peptide-drug conjugates reconstituted in DMSO following production to generate stock solution at 20 mg/mL. Each conjugate stock can be brought to 0.25 mg/mL in each hydrolysis condition (1×DPBS, human plasma and rat plasma) in triplicate and rocked at 37° C. To quantitate free active agent, 100 μl of the hydrolyzed conjugate solution can be transferred into 1 mL acetonitrile at 4° C. at which time all plasma proteins and intact conjugates can precipitate. This can be performed repeatedly to generate a series of time points (0 hr, 0.5 hr, 1 hr, 2 hr, 4 hr, 6 hr, 8 hr, 24 hr, 32 hr). The acetonitrile solution can be spun at 17,000 g for 5 minutes, and the supernatant removed and added to a 96 well block. The pellet can then be resuspended in 500 μl acetonitrile and re-pelleted as before. The supernatant can be removed and added to the same well in the block. Samples can be prepared for analysis by drying under a nitrogen stream followed by reconstitution in 110 μl 45:55 ACN:Citrate 10 mM pH 5.5. To ensure optimal recovery the block can be shaken via plate shaker at 7,000 rpm for 5 minutes during the reconstitution step. Prior to LC/MS the samples can be transferred to a 96 well plate and centrifuged at 6,500 g for 15 minutes. Analysis can be performed on an Agilent 1260 Infinity series HPLC with inline 6120 single quad MS using acetonitrile, water (+0.1% TFA) gradient (shown below) on an InfinityLab Poroshell SB-C18 column. Quantification of free active agent (or drug) can be achieved through integration of active agent peaks of the TIC.
Lyophilized, purified peptide-drug conjugates were reconstituted in DMSO following production to generate stock solution at 20 mg/mL. Each conjugate stock was brought to 0.25 mg/mL in each hydrolysis condition (1×DPBS, human plasma and rat plasma) in triplicate and rocked at 37° C.
To quantitate free dexamethasone (Dex), 100 μl of the hydrolyzed conjugate solution was transferred into 1 mL acetonitrile at 4° C. at which time all plasma proteins and intact conjugates precipitated. This was performed repeatedly to generate a series of time points (0 hr, 0.5 hr, 1 hr, 2 hr, 4 hr, 6 hr, 8 hr, 24 hr, 32 hr). The corticosteroid triamcinolone acetonide (25 μl, 0.1 mg/mL in 45:55 ACN:Citrate 10 mM pH 5.5) was supplemented into the acetonitrile solution as an internal standard. The acetonitrile solution was spun at 17,000 g for 5 minutes, and the supernatant removed and added to a 96 well block. The pellet was resuspended in 500 μl acetonitrile and re-pelleted as before. The supernatant was removed and added to the same well in the block.
Samples were prepared for analysis by drying under a nitrogen stream followed by reconstitution in 110 μl 45:55 ACN:Citrate 10 mM pH 5.5. To ensure optimal recovery the block was shaken via plate shaker at 7,000 rpm for 5 minutes during the reconstitution step. Prior to LC/MS the samples were transferred to a 96 well plate and centrifuged at 6,500 g for 15 minutes. Analysis was performed on an Agilent 1260 Infinity series HPLC with inline 6120 single quad MS using a gradient of 0.1% TFA in acetonitrile (solvent B), and 0.1% TFA (aq) (solvent A) gradient (shown below) on an InfinityLab Poroshell SB-C18 column. […]

in vivo = assay: in vivo
From the text: Dexamethasone alone has low water solubility. […] A secondary objective was to measure free Dex levels in knee joints.
All samples were collected at euthanasia. Free Dex was extracted from plasma samples and quantified by LC/MS. […] To measure the total Dex concentration (free Dex released in vivo+Dex associated with intact peptide-drug conjugate) in plasma of rats treated with Peptide(SEQ ID NO: 105)-DMA-Dex, a separate plasma sample was subjected to forced hydrolysis followed by extraction of free Dex. Dexamethasone extraction was achieved by acetonitrile precipitation from plasma samples. The forced hydrolysis protocol involved addition of 10 U porcine esterase to the plasma and incubation for 22 h at 37° C. Total white blood cell counts, absolute lymphocyte counts, and thymus and spleen weights were measured to assess systemic markers of Dex exposure over the time-course.
In order to quantify the concentration of free Dex in knee joints, knee joints were harvested, the joint capsule was opened, and the knee joints were then shaken in ethyl acetate for 12 h at 4° C. The extract was centrifuged and the supernatant was dried under nitrogen in a 96 well plate. The samples were then reconstituted and analyzed by LC/MS using the same protocol developed for quantifying free Dex in plasma.
An indirect estimate of intact peptide-drug conjugate concentration at each time-point can be made by subtracting the free Dex concentration (from direct extraction) from the total Dex concentration (from forced hydrolysis). […] Systemic exposure to Dex was assessed by multiple parameters: total white blood cell (WBC) count; absolute lymphocyte count; thymus weight; and spleen weight (FIG. 15).

[2] = any time-point to 24 h, single IV dose 0.2 mg/kg

SMILES: CC[C@H](C)[C@@H]1NC(=O)[C@@H]2CSSC[C@H](NC(=O)[C@H](CCCNC(=N)N)NC(=O)[C@@H](NC(=O)[C@H](CC(N)=O)NC(=O)[C@@H](NC(=O)[C@@H]3CCCN3C(=O)[C@@H](NC(=O)CNC(=O)[C@H](CO)NC(=O)CNC(=O)C(C)CCC(C)C(=O)OCC(=O)[C@@]3(O)[C@H](C)C[C@H]4[C@@H]5CCC6=CC(=O)C=C[C@]6(C)[C@@]5(F)[C@@H](O)C[C@@]43C)C(C)C)[C@@H](C)CC)C(C)C)C(=O)N[C@@H](CCCNC(=N)N)C(=O)NCC(=O)N[C@@H](CO)C(=O)N[C@@H](CCCNC(=N)N)C(=O)N[C@@H](CC(=O)O)C(=O)N[C@H]3CSSC[C@H](NC(=O)[C@H](CCCNC(=N)N)NC(=O)[C@H](CO)NC(=O)[C@H](CC(N)=O)NC1=O)C(=O)N[C@@H](Cc1c[nH]cn1)C(=O)N[C@H](C(=O)N[C@H](C(=O)N1CCC[C@H]1C(=O)O)[C@@H](C)O)CSSC[C@H](NC(=O)[C@@H]1CCCN1C(=O)[C@H](CC(=O)O)NC(=O)[C@H](CC(C)C)NC3=O)C(=O)N[C@@H](CCCNC(=N)N)C(=O)N[C@@H](CCCNC(=N)N)C(=O)N[C@@H](C)C(=O)NCC(=O)N[C@@H](CCSC)C(=O)N[C@@H](CCCNC(=N)N)C(=O)N[C@@H](Cc1ccccc1)C(=O)NCC(=O)N[C@@H](CCCNC(=N)N)C(=O)N2 (some centres unmarked) [Compound 27, peptide(SEQ ID NO: 105)-[dimethyladipic acid]-Dex] (X1-GSGVPINVRCRGSRDCLDPCRRAGMRFGRCINSRCHCTP-OH; disulfide 10-30, 16-35, 20-37 (inferred); C-terminus assumed)
- Half-life (hours) as measured in the hydrolysis experiments ([1]; PBS, release of free Dex, time points to 32 hr): undetectable ≤32
- Hydrolysis half-life ([1]; in PBS, free Dex): No Dex release ≤32 h
- WBC and lymphocyte cell counts as compared to DexSP (in vivo; 2 h after single IV dose 0.2 mg/kg): higher
- lymphocyte counts as compared to DexSP (in vivo; 12 h after single IV dose 0.2 mg/kg): lower
- Thymus weight, difference between DexSP and conjugate (in vivo; [2]): not significantly different
- spleen weight, difference between DexSP and conjugate (in vivo; [2]): not significantly different
- half-life (in vivo; female, Lewis, rat, in vivo, iv, 0.2 mg/kg): ~1.5 h
- detectability of intact peptide-drug conjugate in plasma (in vivo; plasma, total Dex minus free Dex, single IV dose 0.2 mg/kg): not detectable after 6 h
